US20260217793A1 (Chugai, published 2026)

T1: FcγRIIb extracellular domain with C-terminal His tag (human, UniProt P31994 43-217)
T1 sequence (looked up): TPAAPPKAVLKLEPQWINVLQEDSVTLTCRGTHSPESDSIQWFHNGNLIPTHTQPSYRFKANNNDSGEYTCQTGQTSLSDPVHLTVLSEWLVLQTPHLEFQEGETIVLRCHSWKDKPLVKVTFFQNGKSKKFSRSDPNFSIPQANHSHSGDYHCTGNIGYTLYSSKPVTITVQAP

T2: FcγRIIa type R extracellular domain with C-terminal His tag (human, UniProt P12318 34-217)
T2 sequence (looked up): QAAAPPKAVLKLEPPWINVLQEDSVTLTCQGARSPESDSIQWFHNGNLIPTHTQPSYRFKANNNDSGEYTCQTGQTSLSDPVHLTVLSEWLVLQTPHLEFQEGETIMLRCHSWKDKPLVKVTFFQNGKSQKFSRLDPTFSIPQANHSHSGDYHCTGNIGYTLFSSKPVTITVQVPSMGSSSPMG

T3: FcγRIIa type H extracellular domain with C-terminal His tag (human, UniProt P12318 34-217)
T3 sequence (looked up): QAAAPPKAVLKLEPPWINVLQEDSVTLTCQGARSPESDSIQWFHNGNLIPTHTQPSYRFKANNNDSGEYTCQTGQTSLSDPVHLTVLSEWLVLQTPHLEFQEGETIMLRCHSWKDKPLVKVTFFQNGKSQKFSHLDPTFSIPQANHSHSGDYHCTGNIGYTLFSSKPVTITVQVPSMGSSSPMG

T4: human FcγRIIb extracellular domain with C-terminal His tag (human, UniProt P31994 43-217)
T4 sequence (looked up): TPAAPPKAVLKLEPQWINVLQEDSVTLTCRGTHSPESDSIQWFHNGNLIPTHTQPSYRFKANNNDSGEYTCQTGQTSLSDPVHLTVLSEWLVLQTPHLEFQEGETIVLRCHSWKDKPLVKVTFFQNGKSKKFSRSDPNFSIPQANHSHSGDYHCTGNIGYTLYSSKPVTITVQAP

T5: human FcγRIIa type R (Arg131) extracellular domain with C-terminal His tag (human, UniProt P12318 34-217)
T5 sequence (looked up): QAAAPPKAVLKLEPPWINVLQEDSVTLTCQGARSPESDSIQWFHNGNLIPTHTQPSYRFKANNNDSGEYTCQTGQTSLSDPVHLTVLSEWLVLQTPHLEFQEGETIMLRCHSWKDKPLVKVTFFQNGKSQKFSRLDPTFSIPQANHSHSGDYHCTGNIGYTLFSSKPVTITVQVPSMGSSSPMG


Key:
[1] = biological target: T1, FcγRIIb extracellular domain with …; assay: ratio of SPR KDs vs IL6R-B3/IL6R-L
[2] = biological target: T2, FcγRIIa type R extracellular domain …; assay: ratio of SPR KDs vs IL6R-B3/IL6R-L
[3] = biological target: T1, FcγRIIb extracellular domain with …; assay: ratio of SPR KDs, FcγRIIaR over FcγRIIb, same variant
[4] = biological target: FcγRIIIa type V extracellular domain with C-terminal His tag (human, UniProt P08637 17-208); assay: SPR
[5] = biological target: T3, FcγRIIa type H extracellular domain …; assay: SPR
[6] = biological target: human FcγRIIIa type V (Val158) extracellular domain with C-terminal His tag (human, UniProt P08637 17-208); assay: SPR
[7] = biological target: T4, human FcγRIIb extracellular domain with …; assay: SPR
[8] = biological target: T4, human FcγRIIb extracellular domain with …; assay: SPR; remark: listed apart in the source
[9] = biological target: T4, human FcγRIIb extracellular domain with …; assay: SPR; remark: listed apart in the source
[10] = biological target: T5, human FcγRIIa type R (Arg131) …; assay: SPR

human FcγRIIIa type V (Val158) extracellular domain with C-terminal His tag, sequence (P08637 17-208 F176V): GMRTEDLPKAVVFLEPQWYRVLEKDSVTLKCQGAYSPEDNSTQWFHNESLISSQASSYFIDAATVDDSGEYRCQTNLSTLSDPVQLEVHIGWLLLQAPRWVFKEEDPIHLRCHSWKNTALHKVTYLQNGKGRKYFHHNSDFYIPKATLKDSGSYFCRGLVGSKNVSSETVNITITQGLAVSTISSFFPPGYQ
FcγRIIIa type V extracellular domain with C-terminal His tag, sequence (P08637 17-208 F176V): as above

| KD (IIb) of parent polypeptide/KD (IIb) of altered polypeptide [1] | KD (IIaR) of parent polypeptide/KD (IIaR) of altered polypeptide [2] | KD (IIaR)/KD (IIb) [3] | Kd [4] [µM] | Kd [5] [µM] | Kd [6] [µM] | KD (IIaR)/KD (IIb) [7] | KD (IIb) of parent polypeptide/KD (IIb) of altered polypeptide [8] | KD (IIaH)/KD (IIb) [9] | KD (IIaR) of parent polypeptide/KD (IIaR) of altered polypeptide [10] | Binder |
| --- | --- | --- | --- | --- | --- | --- | --- | --- | --- | --- |
| 162 | 2.2 | 26.2 | 34 | 9.4 |  |  |  |  |  | IL6R-BP548/IL6R-L (antibody, human IgG1, kappa) heavy: QVQLQESGPGLVKPSETLSLTCAVSGHSISHDHAWSWVRQPPGEGLEWIGFISYSGITNYNPSLQGRVTISRDNSKNTLYLQMNSLRAEDTAVYYCARSLARTTAMDYWGEGTLVTVSSASTKGPSVFPLAPSSKSTSGGTAALGCLVKDYFPEPVTVSWNSGALTSGVHTFPAVLQSSGLYSLSSVVTVPSSSLGTQTYICNVNHKPSNTKVDKKVEPKSCDKTHTCPPCPAPDLLGDDSVFLFPPKPKDTLMISRTPEVTCVVVDVSDEDGEVKFNWYVDGVEVHNAKTKPREEQDNSTYRVVSVLTVLHQDWLNGKEYKCKVSNKALPRPIEKTISKAKGQPREPQVYTLPPSRDELTKNQVSLTCLVKGFYPSDIAVEWESNGQPENNYKTTPPVLDSDGSFFLYSKLTVDKSRWQEGNVFSCSVMHEALHNHYTQESLSLSP light: not shown |
| 205 | 2.2 | 32.8 | 37 | 10 |  |  |  |  |  | IL6R-BP546/IL6R-L (antibody, human IgG1, kappa) heavy: QVQLQESGPGLVKPSETLSLTCAVSGHSISHDHAWSWVRQPPGEGLEWIGFISYSGITNYNPSLQGRVTISRDNSKNTLYLQMNSLRAEDTAVYYCARSLARTTAMDYWGEGTLVTVSSASTKGPSVFPLAPSSKSTSGGTAALGCLVKDYFPEPVTVSWNSGALTSGVHTFPAVLQSSGLYSLSSVVTVPSSSLGTQTYICNVNHKPSNTKVDKKVEPKSCDKTHTCPPCPAPDLLGDDSVFLFPPKPKDTLMISRTPEVTCVVVDVSDEDGEVKFNWYVDGVEVHNAKTKPREEQDNSTYRVVSVLTVLHQDWLNGKEYKCKVSNKALPRPIEKTISKAKGQPREPQVYTLPPSRDEMTKNQVSLTCLVKGFYPSDIAVEWESNGQPENNYKTTPPVLDSDGSFFLYSKLTVDKSRWQQGNVFSCSVMHEALHNHYTQESLSLSP light: not shown |
|  |  |  |  |  | 48 |  | 406 | 656 | 3.3 | IL6R-BP550/IL6R-L (antibody, human IgG1, kappa) heavy: QVQLQESGPGLVKPSETLSLTCAVSGHSISHDHAWSWVRQPPGEGLEWIGFISYSGITNYNPSLQGRVTISRDNSKNTLYLQMNSLRAEDTAVYYCARSLARTTAMDYWGEGTLVTVSSASTKGPSVFPLAPSSKSTSGGTAALGCLVKDYFPEPVTVSWNSGALTSGVHTFPAVLQSSGLYSLSSVVTVPSSSLGTQTYICNVNHKPSNTKVDKKVEPKSCDKTHTCPPCPAPELLGDDSVFLFPPKPKDTLMISRTPEVTCVVIDVGEEDGDVKFNWYVDGVEVHNAKTKPREEQDNSTYRVVSVLTVLHQDWLNGKEYKCKVSNKALPRPIEKTISKAKGQPREPQVYTLPPSRDELTKNQVSLTCLVKGFYPSDIAVEWESNGQPENNYKTTPPVLDSDGSFFLYSKLTVDKSRWQQGNVFSCSVMHEALHNHYTQESLSLSP light: not shown |

More lines, now with the values behind:

| Binder | KD (IIb) of parent polypeptide/KD (IIb) of altered polypeptide [1] | KD (IIaR) of parent polypeptide/KD (IIaR) of altered polypeptide [2] | KD (IIaR)/KD (IIb) [3] | Kd [4] [µM] | Kd [5] [µM] | Kd [6] [µM] | KD (IIaR)/KD (IIb) [7] | KD (IIb) of parent polypeptide/KD (IIb) of altered polypeptide [8] | KD (IIaH)/KD (IIb) [9] | KD (IIaR) of parent polypeptide/KD (IIaR) of altered polypeptide [10] |
| --- | --- | --- | --- | --- | --- | --- | --- | --- | --- | --- |
| IL6R-BP541/IL6R-L (antibody, human IgG1, kappa) heavy: QVQLQESGPGLVKPSETLSLTCAVSGHSISHDHAWSWVRQPPGEGLEWIGFISYSGITNYNPSLQGRVTISRDNSKNTLYLQMNSLRAEDTAVYYCARSLARTTAMDYWGEGTLVTVSSASTKGPSVFPLAPSSKSTSGGTAALGCLVKDYFPEPVTVSWNSGALTSGVHTFPAVLQSSGLYSLSSVVTVPSSSLGTQTYICNVNHKPSNTKVDKKVEPKSCDKTHTCPPCPAPDLLGDDSVFLFPPKPKDTLMISRTPEVTCVVVDVSDEDGEVQFNWYVDGVEVHNAKTKPREEQDNSTYRVVSVLTVLHQDWLNGKEYKCKVSNKALPRPIEKTISKAKGQPREPQVYTLPPSRDELTKNQVSLTCLVKGFYPSDIAVEWESNGQPENNYKTTPPVLDSDGSFFLYSKLTVDKSRWQQGNVFSCSVMHEALHNHYTQESLSLSP light: not shown | 190 | 2.4 | 27.8 | 41 | 9.3 |  |  |  |  |  |
| IL6R-BP533/IL6R-L (antibody, human IgG1, kappa) heavy: QVQLQESGPGLVKPSETLSLTCAVSGHSISHDHAWSWVRQPPGEGLEWIGFISYSGITNYNPSLQGRVTISRDNSKNTLYLQMNSLRAEDTAVYYCARSLARTTAMDYWGEGTLVTVSSASTKGPSVFPLAPSSKSTSGGTAALGCLVKDYFPEPVTVSWNSGALTSGVHTFPAVLQSSGLYSLSSVVTVPSSSLGTQTYICNVNHKPSNTKVDKKVEPKSCDKTHTCPPCPAPDLLGDDSVFLFPPKPKDTLMISRTPEVTCVVIDVGEEDGEVKFNWYVDGVEVHNAKTKPREEQDNSTYRVVSVLTVLHQDWLNGKEYKCKVSNKALPRPIEKTISKAKGQPREPQVYTLPPSRDELTKNQVSLTCLVKGFYPSDIAVEWESNGQPENNYKTTPLVLDSDGSFFLYSKLTVDKSRWQQGNVFSCSVMHEALHNHYTQESLSLSP light: not shown |  |  |  |  |  | 27 | 28.3 | 756 |  |  |
| IL6R-BP544/IL6R-L (antibody, human IgG1, kappa) heavy: QVQLQESGPGLVKPSETLSLTCAVSGHSISHDHAWSWVRQPPGEGLEWIGFISYSGITNYNPSLQGRVTISRDNSKNTLYLQMNSLRAEDTAVYYCARSLARTTAMDYWGEGTLVTVSSASTKGPSVFPLAPSSKSTSGGTAALGCLVKDYFPEPVTVSWNSGALTSGVHTFPAVLQSSGLYSLSSVVTVPSSSLGTQTYICNVNHKPSNTKVDKKVEPKSCDKTHTCPPCPAPDLLGDDSVFLFPPKPKDTLMISRTPEVTCVVVDVSDEDGEVKFNWYVDGVEVHNAKTKPREEQDNSTYRVVSVLTVLHQDWLNGKEYKCKVSNKALPRPIEKTISKAKGQPREPQVYTLPPSQDELTKNQVSLTCLVKGFYPSDIAVEWESNGQPENNYKTTPPVLDSDGSFFLYSKLTVDKSRWQQGNVFSCSVMHEALHNHYTQESLSLSP light: not shown | 184 | 2.2 | 28.8 | 45 | 12 |  |  |  |  |  |
| IL6R-BP543/IL6R-L (antibody, human IgG1, kappa) heavy: QVQLQESGPGLVKPSETLSLTCAVSGHSISHDHAWSWVRQPPGEGLEWIGFISYSGITNYNPSLQGRVTISRDNSKNTLYLQMNSLRAEDTAVYYCARSLARTTAMDYWGEGTLVTVSSASTKGPSVFPLAPSSKSTSGGTAALGCLVKDYFPEPVTVSWNSGALTSGVHTFPAVLQSSGLYSLSSVVTVPSSSLGTQTYICNVNHKPSNTKVDKKVEPKSCDKTHTCPPCPAPDLLGDDSVFLFPPKPKDTLMISRTPEVTCVVVDVSQEDGEVKFNWYVDGVEVHNAKTKPREEQDNSTYRVVSVLTVLHQDWLNGKEYKCKVSNKALPRPIEKTISKAKGQPREPQVYTLPPSRDELTKNQVSLTCLVKGFYPSDIAVEWESNGQPENNYKTTPPVLDSDGSFFLYSKLTVDKSRWQQGNVFSCSVMHEALHNHYTQESLSLSP light: not shown | 152 | 1.9 | 27.3 | 46 | 7.4 |  |  |  |  |  |
| IL6R-BP539/IL6R-L (antibody, human IgG1, kappa) heavy: QVQLQESGPGLVKPSETLSLTCAVSGHSISHDHAWSWVRQPPGEGLEWIGFISYSGITNYNPSLQGRVTISRDNSKNTLYLQMNSLRAEDTAVYYCARSLARTTAMDYWGEGTLVTVSSASTKGPSVFPLAPSSKSTSGGTAALGCLVKDYFPEPVTVSWNSGALTSGVHTFPAVLQSSGLYSLSSVVTVPSSSLGTQTYICNVNHKPSNTKVDKKVEPKSCDKTHTCPPCPAPELLGDDSVFLFPPKPKDTLMISRTPEVTCVVIDVGEEDGPVKFNWYVDGVEVHNAKTKPREEQDNSTYRVVSVLTVLHQDWLNGKEYKCKVSNKALPRPIEKTISKAKGQPREPQVYTLPPSRDELTKNQVSLTCLVKGFYPSDIAVEWESNGQPENNYKTTPPVLDSDGSFFLYSKLTVDKSRWQQGNVFSCSVMHEALHNHYTQESLSLSP light: not shown |  |  |  |  |  | 34 | 38 | 369 |  | 3.4 |
